Laboratory results published in paper PMC2779590.

Target: stable 100 kDa N-terminal fragment of CagA (Helicobacter pylori (strain not stated)) (UniProt P55980)
Experiment: SPR

stable 100 kDa N-terminal fragment of CagA (Helicobacter pylori (strain not stated)), sequence (P55980 1-885 limits assumed): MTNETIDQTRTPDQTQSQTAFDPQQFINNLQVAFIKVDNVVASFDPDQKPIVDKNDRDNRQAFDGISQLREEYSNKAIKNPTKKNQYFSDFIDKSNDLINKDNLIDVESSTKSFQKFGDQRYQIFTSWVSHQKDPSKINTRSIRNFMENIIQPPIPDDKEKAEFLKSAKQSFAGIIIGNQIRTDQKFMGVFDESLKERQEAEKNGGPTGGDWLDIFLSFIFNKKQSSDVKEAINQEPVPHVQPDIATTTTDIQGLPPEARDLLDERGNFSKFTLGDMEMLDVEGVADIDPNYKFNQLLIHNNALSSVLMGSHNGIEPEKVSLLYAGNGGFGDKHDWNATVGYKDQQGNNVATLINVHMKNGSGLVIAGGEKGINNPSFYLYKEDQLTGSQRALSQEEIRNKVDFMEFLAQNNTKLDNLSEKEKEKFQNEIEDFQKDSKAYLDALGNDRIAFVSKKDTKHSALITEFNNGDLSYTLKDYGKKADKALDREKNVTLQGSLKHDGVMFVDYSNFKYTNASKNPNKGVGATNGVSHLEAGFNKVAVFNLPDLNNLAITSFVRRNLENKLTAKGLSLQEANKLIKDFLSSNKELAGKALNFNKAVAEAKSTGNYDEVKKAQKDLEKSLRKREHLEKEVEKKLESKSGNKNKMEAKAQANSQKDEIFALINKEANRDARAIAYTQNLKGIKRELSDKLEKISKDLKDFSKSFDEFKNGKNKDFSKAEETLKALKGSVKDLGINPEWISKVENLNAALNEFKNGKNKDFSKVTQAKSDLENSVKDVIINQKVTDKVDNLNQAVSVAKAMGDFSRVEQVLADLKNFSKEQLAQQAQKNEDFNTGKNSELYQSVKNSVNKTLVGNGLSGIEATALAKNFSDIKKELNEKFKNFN

| Substance | Kd |
| --- | --- |
| purified human α5β1 integrin (from placenta) (from UniProt P05556 21-798) (complex) | 0.153 nM |
| purified human αVβ3 integrin (from placenta) (from UniProt P05106 27-788) (complex) | 33.4 nM |
